Source: patent US20090239794A1, “HCV F PROTEIN AND USES THEREOF” (priority 2004, published 2009)

Target: HLA-A*0201 on the surface of T2 cells (human)
Experiment: T2 peptide binding assay, W6/32-FITC flow cytometry

Binder | peak fluorescence, % of the level obtained with NS3 1406-1415 [%]
VRSLVEFTCCRAGAL (modifications not checked) [F protein peptide F29-43] | 87.6
CCRAGALDWVCARRE (modifications not checked) [F protein peptide F37-51] | 79.2
PVALGLAGAPQTPGV (modifications not checked) [F protein peptide F101-115] | 83.2
